{"source": "paper PMC11924945", "about": "(2024)", "binders": {"B1": {"name": "Aedes aegypti Nest1 (neutrophil-stimulating factor 1), recombinant, amino acids 22 to 316 (natural protein)", "chain": "KPTQGSCTLTDEDISDIKSAVQKASKAAVNDIVLDPTLIDKCPMLEKITASLKSVATEIVQMRDSAISTDQVDQLKQNFEDQVNQIVKSRDIFEKQSGTQATKEHGEMLERMTALQVKVTELEQQIAKQTASMYEDMAELIFQRLQMNSTESVRSYTKHMMEEKLEELMNKLETNYRIYLGALRFLNHMNDQELIGKVFDGILKRLGDMKADSDDVKENGRNLLVNLLCWTVNNDFLGKKYKERQVDLYRMALKFYPKTYEKAANEADVRSRQFCEENFPANLITWFAVSWNDRG", "modifications": "biotin (BirA500 kit) in the yeast library screen"}}, "target": "human CD47 (19 to 135) tagged with human immunoglobulin G1 Fc (N297A) (human, UniProt Q08722 19-135, biotin (NHS-biotin, 10-fold molar excess) in SPR)", "sequence (Q08722 19-135, stated change not applied)": "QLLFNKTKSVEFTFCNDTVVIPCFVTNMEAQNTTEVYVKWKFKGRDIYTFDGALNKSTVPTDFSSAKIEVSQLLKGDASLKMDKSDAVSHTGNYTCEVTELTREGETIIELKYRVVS", "experiment": "SPR", "data": [{"binder": "B1", "values": [{"measurement": "koff", "value": 0.0121, "unit": "s⁻¹"}]}]}
